Results published in article PMC10621011 (ACS Omega, 2023).
Where “and” joins values, the source holds several entries; their conditions need not be identical. Equal values may be shown once.

What was measured:
[1] = target: Human PD-L1 mouse Fc fusion protein (human, UniProt Q9NZQ7 19-238); experiment: ELISA
[2] = target: PD-L1 on H1975 human lung adenocarcinoma cells (human (on H1975 cells), UniProt Q9NZQ7 19-290); experiment: ELISA
Chain of PD-L1 on H1975 human lung adenocarcinoma cells (Q9NZQ7 19-290): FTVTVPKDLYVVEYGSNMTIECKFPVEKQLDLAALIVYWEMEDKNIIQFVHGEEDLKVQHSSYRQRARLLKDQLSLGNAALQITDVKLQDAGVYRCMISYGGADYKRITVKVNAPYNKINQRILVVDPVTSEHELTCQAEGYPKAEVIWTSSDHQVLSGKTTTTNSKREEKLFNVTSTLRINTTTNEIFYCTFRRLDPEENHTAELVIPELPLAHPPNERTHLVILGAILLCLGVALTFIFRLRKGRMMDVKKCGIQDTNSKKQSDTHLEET

Chain of Human PD-L1 mouse Fc fusion protein (Q9NZQ7 19-238): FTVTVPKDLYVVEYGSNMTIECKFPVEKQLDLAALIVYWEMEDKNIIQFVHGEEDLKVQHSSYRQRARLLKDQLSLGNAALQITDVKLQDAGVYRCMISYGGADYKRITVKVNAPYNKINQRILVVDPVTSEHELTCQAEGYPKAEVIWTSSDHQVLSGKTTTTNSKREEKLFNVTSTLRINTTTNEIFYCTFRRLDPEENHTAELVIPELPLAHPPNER

EC50 [1]: 20 pM
EC50 [2]: ~200 pM and 100 pM and 130 pM
B1: mutPD-1Ig (Fc fusion, human, UniProt Q15116 21-161, looked up)
chain: PGWFLDSPDRPWNPPTFSPALLVVTEGDNATFTCSFSNTSESFVLNWYRMSPSNQTDKLAAFPEDRSQPGQDCRFRVTQLPNGRDFHMSVVRARRNDSGTYLCSAISLAPYIQIKESLRAELRVTERRAEVPTAHPSPSPR
